Assay results published in patent EP3912994A1.
pKd: −log10 of the molar value.

Experiments:
[1] = biological target: Tenascin-C (TNC) expressed by the NT193M tumor cell (mouse) (UniProt Q80YX1); experiment: cell-based or functional assay
[2] = biological target: Tenascin-C (TNC), recombinant full length; experiment: SPR (Biacore 2000), TNC immobilised on CM5 chip, 1:1 Langmuir model
[3] = biological target: fibronectin type III domains 1-5 of human tenascin-C (human) (UniProt P24821); experiment: ELISA, TN1-5 coated, biotinylated FN12-14 titrated 1 nM to 1 µM
fibronectin type III domains 1-5 of human tenascin-C (human), sequence (P24821 625-1075, form in doubt): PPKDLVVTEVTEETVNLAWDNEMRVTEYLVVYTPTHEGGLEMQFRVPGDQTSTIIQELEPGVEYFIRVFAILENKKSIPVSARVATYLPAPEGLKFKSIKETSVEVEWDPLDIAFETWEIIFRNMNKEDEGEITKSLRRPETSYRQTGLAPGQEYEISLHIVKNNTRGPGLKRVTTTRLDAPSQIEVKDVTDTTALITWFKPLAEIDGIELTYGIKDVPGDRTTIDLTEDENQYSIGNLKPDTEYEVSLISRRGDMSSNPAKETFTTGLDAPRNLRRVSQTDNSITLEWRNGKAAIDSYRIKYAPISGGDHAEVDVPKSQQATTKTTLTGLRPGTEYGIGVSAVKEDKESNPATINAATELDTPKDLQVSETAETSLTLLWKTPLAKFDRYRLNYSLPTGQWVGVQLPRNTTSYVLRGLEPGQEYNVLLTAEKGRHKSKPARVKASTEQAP

Tenascin-C (TNC) expressed by the NT193M tumor cell (mouse), sequence (Q80YX1 23-2110 limits assumed): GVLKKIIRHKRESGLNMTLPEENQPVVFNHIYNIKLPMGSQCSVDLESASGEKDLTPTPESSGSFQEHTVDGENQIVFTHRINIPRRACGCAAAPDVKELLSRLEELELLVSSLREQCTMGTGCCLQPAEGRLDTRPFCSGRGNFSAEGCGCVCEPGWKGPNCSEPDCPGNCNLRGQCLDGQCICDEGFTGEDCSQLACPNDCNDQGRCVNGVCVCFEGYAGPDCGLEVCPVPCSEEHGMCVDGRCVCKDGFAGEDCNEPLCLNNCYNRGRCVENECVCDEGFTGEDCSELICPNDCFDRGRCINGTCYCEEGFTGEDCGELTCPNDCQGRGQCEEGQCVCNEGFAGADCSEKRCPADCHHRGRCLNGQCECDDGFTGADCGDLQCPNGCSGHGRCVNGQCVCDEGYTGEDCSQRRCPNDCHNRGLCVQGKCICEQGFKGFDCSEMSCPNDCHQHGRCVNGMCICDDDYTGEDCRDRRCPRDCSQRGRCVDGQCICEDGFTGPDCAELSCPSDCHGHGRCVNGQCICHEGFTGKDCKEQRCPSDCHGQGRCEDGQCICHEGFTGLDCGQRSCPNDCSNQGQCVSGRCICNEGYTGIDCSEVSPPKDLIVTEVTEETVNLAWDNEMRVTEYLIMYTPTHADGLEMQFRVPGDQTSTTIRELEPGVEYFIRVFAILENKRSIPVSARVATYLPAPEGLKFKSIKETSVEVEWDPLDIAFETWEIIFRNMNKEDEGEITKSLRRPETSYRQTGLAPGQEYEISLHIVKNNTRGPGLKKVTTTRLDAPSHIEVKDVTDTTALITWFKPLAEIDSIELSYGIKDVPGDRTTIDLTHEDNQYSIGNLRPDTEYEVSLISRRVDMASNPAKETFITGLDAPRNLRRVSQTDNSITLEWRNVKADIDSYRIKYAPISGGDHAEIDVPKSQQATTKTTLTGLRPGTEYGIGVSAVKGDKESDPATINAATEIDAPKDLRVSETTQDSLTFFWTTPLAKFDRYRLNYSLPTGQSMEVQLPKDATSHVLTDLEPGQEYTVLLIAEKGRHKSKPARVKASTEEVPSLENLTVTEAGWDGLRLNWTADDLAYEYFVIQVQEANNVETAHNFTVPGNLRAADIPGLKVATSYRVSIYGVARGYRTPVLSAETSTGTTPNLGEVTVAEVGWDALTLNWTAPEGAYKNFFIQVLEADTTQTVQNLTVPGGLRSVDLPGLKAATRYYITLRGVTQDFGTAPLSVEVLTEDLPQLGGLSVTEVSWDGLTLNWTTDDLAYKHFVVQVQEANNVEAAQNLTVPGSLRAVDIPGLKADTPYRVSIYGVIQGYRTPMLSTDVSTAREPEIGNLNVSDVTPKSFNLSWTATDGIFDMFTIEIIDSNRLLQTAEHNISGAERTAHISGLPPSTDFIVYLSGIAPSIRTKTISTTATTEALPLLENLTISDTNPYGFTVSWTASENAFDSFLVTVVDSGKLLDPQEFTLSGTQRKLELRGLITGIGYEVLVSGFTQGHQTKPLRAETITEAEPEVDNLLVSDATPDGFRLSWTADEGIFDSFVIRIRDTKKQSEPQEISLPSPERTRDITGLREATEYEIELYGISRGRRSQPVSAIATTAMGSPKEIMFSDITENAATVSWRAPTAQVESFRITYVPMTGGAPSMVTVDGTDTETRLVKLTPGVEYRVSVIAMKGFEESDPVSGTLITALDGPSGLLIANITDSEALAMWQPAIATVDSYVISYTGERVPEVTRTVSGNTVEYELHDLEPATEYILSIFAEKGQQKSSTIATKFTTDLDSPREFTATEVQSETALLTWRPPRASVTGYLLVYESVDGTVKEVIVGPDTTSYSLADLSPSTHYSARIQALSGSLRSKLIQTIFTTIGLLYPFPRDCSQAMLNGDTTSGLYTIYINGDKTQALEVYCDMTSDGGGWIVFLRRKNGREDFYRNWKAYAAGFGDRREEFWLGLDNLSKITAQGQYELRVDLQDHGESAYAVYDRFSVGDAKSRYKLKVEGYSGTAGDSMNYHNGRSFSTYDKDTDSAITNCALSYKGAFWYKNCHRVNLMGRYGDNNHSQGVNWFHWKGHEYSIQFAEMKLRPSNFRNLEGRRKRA

pKd [2] | pKd [3] | Substance | TRAIL-induced killing of NT193M cells [1] [%]
8.55 |  | Mouse recombinant SU… (Enzo Lifesciences ALX-201-130-C020) (from UniProt P50592 99-291) (ligand) | 5
6.10 |  | CXCL12 (R&D Systems 460-SD-050) (from UniProt P40224 22-89) (ligand) | 
7.24 |  | CCL21 (R&D Systems 457-6C) (from UniProt P84444 24-133) (ligand) | 
 | 7.28 | fibronectin type III domains 12-14 of human fibronectin (double Strep-tagged) (from UniProt P02751 1635-1908) | 
